Source: patent US7422861B2, “Oligonucleotide transfection screening method” (priority 2000, dated 2008)

System: SKOV3 (ovarian carcinoma) cells
Experiment: Apoptosis assay, annexin V and PI staining followed by FACS analysis (FIG. 1B)
Format: cell-based
Settings: SKOV3 cells from the same transfections
Protocol: As a measure of cellular toxicity of the transfection agents, cells from the same transfections were stained with annexin V and PI, followed by FACS analysis (FIG. 1B). The fraction of cells positive for Annexin V, or for Annexin V and PI, are those in early or late stage apoptosis, respectively.
Apoptosis Assay. Following transfection with antisense oligonucleotides and various transfection agents, cells were gently removed from plates using 0.05% trypsin and 2 mM EDTA, washed in a buffer containing 10 mM Hepes pH7.2, 140 mM NaCl, 5 mM CaCl2, and stained with Propidium iodide at a final concentration of 1 μg/ml and Annexin-V-FLUOS (Roche Molecular Biochemicals). Cells were then analyzed for staining with each marker using a Becton Dickinson FACScan.

Row | Structure (SMILES) | Staining with annexin V or PI (apoptosis)
1 | CCCCCCCCCCCCCC(=O)OCC(COP(=O)(O)OCCNCC(=O)N(CCN)CC(=O)N(CCc1ccc(OC)cc1)CC(=O)N(CCc1ccc(OC)cc1)CC(=O)N(CCN)CC(=O)N(CCc1ccc(OC)cc1)CC(=O)N(CCc1ccc(OC)cc1)CC(=O)N(CCN)CC(=O)N(CCc1ccc(OC)cc1)CC(=O)N(CCc1ccc(OC)cc1)CC(N)=O)OC(=O)CCCCCCCCCCCCC (centres unmarked) [Lipitoid 1] | negligible staining
2 | COc1ccc(CCN(CC(N)=O)C(=O)CN(CCc2ccc(OC)cc2)C(=O)CN(CCN)C(=O)CN(CCc2ccc(OC)cc2)C(=O)CN(CCc2ccc(OC)cc2)C(=O)CN(CCN)C(=O)CN(CCc2ccc(OC)cc2)C(=O)CN(CCc2ccc(OC)cc2)C(=O)CN(CCN)C(=O)CCNC(=O)O[C@H]2CC[C@@]3(C)C(=CC[C@H]4[C@@H]5CC[C@H]([C@H](C)CCCC(C)C)[C@@]5(C)CC[C@@H]43)C2)cc1 [Cholesteroid 1] | negligible staining
